{
  "source": "paper PMC12188314",
  "origin": "cited, not measured here",
  "molecular_target": "Rab27A (Mus musculus) (UniProt Q9ERI2)",
  "sequence (Q9ERI2 2-221)": "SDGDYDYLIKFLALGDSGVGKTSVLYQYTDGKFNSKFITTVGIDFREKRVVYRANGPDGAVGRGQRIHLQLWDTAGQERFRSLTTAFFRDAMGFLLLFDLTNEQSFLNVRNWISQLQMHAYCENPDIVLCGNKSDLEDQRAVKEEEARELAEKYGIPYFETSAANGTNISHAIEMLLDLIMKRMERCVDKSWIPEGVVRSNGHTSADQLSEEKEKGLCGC",
  "data": [
    {"substance": "Slp2-a SHD (from UniProt Q99N50)", "values": [
      {"measurement": "Kd", "result": 13, "unit": "nM"}
    ]}
  ]
}
